Measured values reported in patent publication US20220389085A1 (BIONOXX, published 2022).

T1: protein A56 of the oncolytic virus OTS-412 (vaccinia virus (OTS-412), UniProt P08714 17-315)
T1 construct: also called OTS-412-A56; protein A56 variant
T1 chain: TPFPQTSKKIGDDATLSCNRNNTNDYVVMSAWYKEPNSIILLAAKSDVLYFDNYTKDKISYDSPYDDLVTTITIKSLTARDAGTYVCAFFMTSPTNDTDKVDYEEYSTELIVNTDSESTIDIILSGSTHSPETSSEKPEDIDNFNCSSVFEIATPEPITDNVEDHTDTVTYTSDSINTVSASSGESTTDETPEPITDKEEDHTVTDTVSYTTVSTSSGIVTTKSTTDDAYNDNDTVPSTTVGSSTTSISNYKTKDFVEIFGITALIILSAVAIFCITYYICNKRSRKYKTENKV

B1: A56-01A02 (Ab01) (antibody, V domains shown)
VH: QMQLVQSGAEVKKPGSSVKVSCKASGGTFSSYAISWVRQAPGQGLEWMGGIIPIFGTANYAQKFQGRVTMTRDTSTSTVYMELSSLKSEDTAVYYCARFVFGSGTYLDSWGQGTLVTVSS
VL: not shown
B2: A56-01A04 (Ab03) (antibody, V domains shown)
VH: QVQLVESGAEVKKPGSSVKVSCKASGGTFSYRYLHWVRQASGQALEWMGWITPFNGYTNYAQKFQDRVTITRDRSMSTAYMELSSLRSEDTAVYYCVTGLGKTNLDSWGQGTLVTVSS
VL: DIVMTQTPLSSPVTLGQPASISCRSSQSLVHSNGNTYLSWLQQRPGQPPRLLIYQISKRFSGVPDRFSGSGAGTDFTLKISRVEAEDVGVYYCMQLTQFPLTFGGGTKVEIK
B3: A56-35G07 (Ab51) (antibody, V domains shown)
VH: QMQLVQSGAEVRKPGSSVKVSCKASGDTFSSYAVSWVRQAPGLGLEWMGRTIPRLGATSYAQNFQGRVSITADKSTNTVYMELSGLRSEDTAVYYCARYIPLVRGVRQPRDDFEIWGPGTMITVSS
VL: DIQMTQSPGTLSLSPGERATLSCRASQSVSSSYLAWYQQKPGQAPRLLIYGASSRATGIPDRFSGSGSGTDFTLTISSLEPEDFAVYYCQHRKSWPPGATFGQGTRLEIK
B4: A56-02B01 (Ab14) (antibody, V domains shown)
VH: QVQLVQSGGGVVQPGRSLRLSCAASGFTFSNYGMHWVRQAPGKGLEWMAFIWFDGSNKFYADSVKGRFTVSRDNSKNTLFLQMNSLRAEDTAVYYCAKAAHLWGAFDIWGQGTMVTVSS
VL: DIQMTQSPDTLSLSPGERATLSCRASQSVSSYLAWYQQKPGQAPRLLIYGASNRATGIPARFSGSGSGTDFALTIGRLEPEDFAVYYCQQYATSPLSFGGGTKVEIK
B5: LakePharma variant3 (antibody)
VH: QVQLQQSGPELVKPGASMKLSCKASGYSFTGYTMNWVKQSHGKNLEWIGLINPYNGGTSYNQKFKGKATLTVDKSSSTAYMELLSLTSEDSAVYYCARSHYRYDYWYFDVWGAGTTVTVSSAKTTPPSVYPLAPGSAAQTNSMVTLGCLVKGYFPEPVTVTWNSGSLSSGVHTFPAVLQSDLYTLSSSVTVPSSTWPSETVTCNVAHPASSTKVDKKIVPRDCGCKPCICTVPEVSSVFIFPPKPKDVLTITLTPKVTCVVVDISKDDPEVQFSWFVDDVEVHTAQTQPREEQFNSTFRSVSELPIMHQDWLNGKEFKCRVNSAAFPAPIEKTISKTKGRPKAPQVYTIPPPKEQMAKDKVSLTCMITDFFPEDITVEWQWNGQPAENYKNTQPIMDTDGSYFVYSKLNVQKSNWEAGNTFTCSVLHEGLHNHHTEKSLSHSPGK
VL: DVVMTQTPLSLPVSLGDQASISCRSSQSLVHSNGNTYLHWYLQKPGQSPKLLIYKVSNRFSGVPDRFSGSGSGTDFTLKISRVEAEDLGVYFCSQSTHVPPFTFGSGTKLEIKRADAAPTVSIFPPSSEQLTSGGASVVCFLNNFYPKDINVKWKIDGSERQNGVLNSWTDQDSKDSTYSMSSTLTLTKDEYERHNSYTCEATHKTSTSPIVKSFNRNEC
notes: also called LP variant3; LPvariant03
B6: LakePharma variant4 (antibody)
VH: EVQLQQSGPELVKPGASMKLSCKASGYSFTGYTMNWVKQSHGKNLEWIGLINPYNGGTSYNQKFKGKATLTVDKSSSTAYMELLSLTSEDSAVYYCARSHYRYDYWYFDVWGAGTTVTVSSAKTTPPSVYPLAPGSAAQTNSMVTLGCLVKGYFPEPVTVTWNSGSLSSGVHTFPAVLQSDLYTLSSSVTVPSSTWPSETVTCNVAHPASSTKVDKKIVPRDCGCKPCICTVPEVSSVFIFPPKPKDVLTITLTPKVTCVVVDISKDDPEVQFSWFVDDVEVHTAQTQPREEQFNSTFRSVSELPIMHQDWLNGKEFKCRVNSAAFPAPIEKTISKTKGRPKAPQVYTIPPPKEQMAKDKVSLTCMITDFFPEDITVEWQWNGQPAENYKNTQPIMDTDGSYFVYSKLNVQKSNWEAGNTFTCSVLHEGLHNHHTEKSLSHSPGK
VL: DVVMTQTPLSLPVSLGDQASISCRSSQSLVHSNGNTYLHWYLQKPGQSPKLLIYKVSNRFSGVPDRFSGSGSGTDFTLKISRVEAEDLGVYFCSQSTHVPPFTFGSGTKLEIKRADAAPTVSIFPPSSEQLTSGGASVVCFLNNFYPKDINVKWKIDGSERQNGVLNSWTDQDSKDSTYSMSSTLTLTKDEYERHNSYTCEATHKTSTSPIVKSFNRNEC
notes: also called LP variant4; LPvariant04
B7: A56-01F12 (Ab08) (antibody, V domains shown)
VH: QVQLVESGGEVKKPGSSVKVSCKASGGSFSTYAISWVRQAPGQGLEWMGRIIPISDIRNYAQKFQGRVTLTADRATSTAYMELSSLRSEDTAVYYCAKGGRLLSTHFDYWGQGTLVTVSS
VL: QLVLTQPPSVSAAPGQKVTISCSGSSSNIGNNYVSWYQQLPGTAPKLLIYDDDKRPSGIPDRFSGSKSGTSATLGITGLQTGDEADYYCGTWHSGLSAGVVFGGGTKLTVL
B8: A56-02A02 (Ab13) (antibody, V domains shown)
VH: QMQLVESGAEVKKTGSSVKVSCKASGDTLTYRFLHWVRQAPGQAPEWMGWITPFNDNTNYAQKFQDRVTITRDRSMSTAYMELSSLRSEDTAVYYCATGGGNNYYGMEVWGQGTPITVSS
VL: SYELTQPLSLSVSPGQTASITCSGDKLGDKFTSWYQQQPGQSPVLVIYQDAKRPSGIPERFSGSNSGSTATLTISGTQSMDEADYYCQAWDSSSVVFGGGTKLTVL
B9: A56-02C06 (Ab18) (antibody, V domains shown)
VH: QVQLVESGGGLVQPGKSLRLSCAASGFTFSTYGMTWVRQAPGKGLEWVSGISGGGSSTNYADSVKGRFIISRDNSNNTLYLQMNSLRAEDTAVYYCARWGVMLSFDYWGQGTPVTVSS
VL: DIQMTQSPSTLPASVGDRVTITCRASYSVSPWLAWYQQKPGKAPKLLIYKASTLESGVPSRFSGSGSGTEFTLTISSLQPDDFATYYCQQFNSYMMYTFGQGTKLEIK
B10: A56-44G01 (Ab55) (antibody, V domains shown)
VH: QVQLVESGGGVVQPGRSLRLSCAASGFTFSSYAMHWVRQAPGKGLEWVAVISYDGSNKYYADSVKGRFTISRDNSKNTLYLQMNSLRAEDTAVYYCAKDLWGRVGALVGALDLWGQGTMITVSS
VL: SYELTQGPSLSVSPGQTANIICSGDNLRTKYVSWYQQKPGQSPILVIYQDTRRPSGIPARFSGSNSGNTATLTISGTQAMDEADYYCQAWDSGNYVFGTGTKVTVL
B11: A56-02C07 (Ab19) (antibody, V domains shown)
VH: QVQLVESGAEVRRPGSSVKVSCKTSGVTFSGYVLSWVRQAPGHGLEWMGRIIPLIDVENYAREFQGRMKITADKSTNTVYMELNNLRSEDTAVYYCAKSVVRGLDYYYYGFDVWGQGTTVTVSS
VL: SYELTQPPSLSVAPGKTARITCGGNNIGSKSVHWYQQKPGQAPRLVTYYDGNRPSGIPERFSGSNSGNTATLIISRVEAGDEADYYCQVWDSSSDQGVFGTGTKVTVL

Tests used:
[1] = target: T1, protein A56 of the oncolytic virus …; assay: flow cytometry, A549 cells treated with OTS-412
[2] = target: T1, protein A56 of the oncolytic virus …; assay: flow cytometry, MCF7 cells treated with OTS-412
[3] = target: T2, protein A56 of the oncolytic virus WOTS-418 (vaccinia virus (WOTS-418, Western …, UniProt Q01218 17-314)); assay: flow cytometry, MCF7 cells treated with WOTS-418
T2 construct: also called WOTS-418-A56; protein A56 variant

[4] = target: T2, protein A56 of the oncolytic virus …; assay: flow cytometry, PC3 cells treated with WOTS-418 (overlay, FIG. 75)
[5] = target: T1, protein A56 of the oncolytic virus …; assay: flow cytometry, PC3 cells treated with OTS-412 (overlay, FIG. 74)
[6] = target: T2, protein A56 of the oncolytic virus …; assay: flow cytometry, A549 cells treated with WOTS-418
[7] = target: T1, protein A56 of the oncolytic virus …; assay: flow cytometry, PC3 cells treated with OTS-412
[8] = target: T2, protein A56 of the oncolytic virus …; assay: flow cytometry, PC3 cells treated with WOTS-418

Binder | binding signal (flow cytometry, %) [1] [%] | binding signal (flow cytometry, %) [2] [%] | binding signal (flow cytometry, %) [3] [%] | binding signal (flow cytometry, %) [4] [%] | binding signal (flow cytometry, %) [5] [%] | binding signal (flow cytometry, %) [6] [%] | binding signal (flow cytometry, %) [7] [%] | binding signal (flow cytometry, %) [8] [%]
B1 | ≥ 90 | ≥ 80 | ≥ 80 | ≥ 60 | ≥ 60 | ≥ 90 | – | –
B2 | ≥ 90 | ≥ 80 | ≥ 80 | ≥ 60 | ≥ 60 | ≥ 90 | – | –
B3 | ≥ 90 | ≥ 80 | ≥ 80 | ≥ 60 | ≥ 60 | ≥ 90 | – | –
B4 | ≥ 90 | ≥ 80 | ≥ 80 | ≥ 60 | ≥ 60 | ≥ 90 | – | –
B5 | ≥ 93 | – | – | – | – | ≥ 93 | ≥ 90 | ≥ 90
B6 | ≥ 93 | – | – | – | – | ≥ 93 | ≥ 90 | ≥ 90
B7 | ≥ 90 | ≥ 80 | ≥ 80 | ≥ 60 | ≥ 60 | ≥ 90 | – | –
B8 | ≥ 90 | ≥ 80 | ≥ 80 | ≥ 60 | ≥ 60 | ≥ 90 | – | –
B9 | – | ≥ 80 | ≥ 80 | ≥ 60 | ≥ 60 | – | – | –
B10 | ≥ 90 | ≥ 80 | ≥ 80 | ≥ 60 | ≥ 60 | ≥ 90 | – | –
B11 | ≥ 90 | ≥ 80 | ≥ 80 | ≥ 60 | ≥ 60 | ≥ 90 | – | –
